Assay results reported in patent US20230332136A1, “IL-17 RECEPTOR MODULATOR SCREENING SYSTEM” (New York University, priority 2022, published 2023).

What was measured:
IL-17RA/RC = molecular target: T1, IL-17RA/RC (Mus musculus, UniProt Q60943+Q8K4C2); experiment: mADIR-17 dmCherry reporter assay in MEF cells (flow cytometry); assay type: cell-based
T1 construct: Full length IL-17RC in the purified ADIR system; expressed in transfected cells; host or cells: mouse embryonic fibroblasts (MEF), retrovirally transduced
T1 sequence (Q60943 32-864): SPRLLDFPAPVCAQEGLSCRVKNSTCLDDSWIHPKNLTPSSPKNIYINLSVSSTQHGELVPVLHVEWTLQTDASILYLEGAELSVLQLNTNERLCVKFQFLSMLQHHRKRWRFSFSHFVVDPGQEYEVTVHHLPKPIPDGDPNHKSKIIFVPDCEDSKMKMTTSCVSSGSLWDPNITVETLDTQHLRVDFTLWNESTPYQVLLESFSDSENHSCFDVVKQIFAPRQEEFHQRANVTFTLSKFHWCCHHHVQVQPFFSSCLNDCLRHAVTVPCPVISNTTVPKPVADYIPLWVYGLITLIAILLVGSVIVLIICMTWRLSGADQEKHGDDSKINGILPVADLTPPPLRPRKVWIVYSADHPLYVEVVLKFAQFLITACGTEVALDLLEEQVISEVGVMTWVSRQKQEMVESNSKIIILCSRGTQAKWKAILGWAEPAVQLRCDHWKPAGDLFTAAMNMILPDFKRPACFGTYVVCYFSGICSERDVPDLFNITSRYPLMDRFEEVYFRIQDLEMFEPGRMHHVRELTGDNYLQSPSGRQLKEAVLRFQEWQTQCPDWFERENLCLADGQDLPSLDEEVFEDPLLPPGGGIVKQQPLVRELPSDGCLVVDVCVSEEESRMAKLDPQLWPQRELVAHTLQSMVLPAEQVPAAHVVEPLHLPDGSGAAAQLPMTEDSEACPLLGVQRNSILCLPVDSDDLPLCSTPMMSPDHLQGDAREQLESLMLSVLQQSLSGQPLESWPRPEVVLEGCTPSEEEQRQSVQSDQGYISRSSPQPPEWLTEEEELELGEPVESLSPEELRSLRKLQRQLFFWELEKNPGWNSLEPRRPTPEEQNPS
T1 sequence (Q8K4C2 22-698): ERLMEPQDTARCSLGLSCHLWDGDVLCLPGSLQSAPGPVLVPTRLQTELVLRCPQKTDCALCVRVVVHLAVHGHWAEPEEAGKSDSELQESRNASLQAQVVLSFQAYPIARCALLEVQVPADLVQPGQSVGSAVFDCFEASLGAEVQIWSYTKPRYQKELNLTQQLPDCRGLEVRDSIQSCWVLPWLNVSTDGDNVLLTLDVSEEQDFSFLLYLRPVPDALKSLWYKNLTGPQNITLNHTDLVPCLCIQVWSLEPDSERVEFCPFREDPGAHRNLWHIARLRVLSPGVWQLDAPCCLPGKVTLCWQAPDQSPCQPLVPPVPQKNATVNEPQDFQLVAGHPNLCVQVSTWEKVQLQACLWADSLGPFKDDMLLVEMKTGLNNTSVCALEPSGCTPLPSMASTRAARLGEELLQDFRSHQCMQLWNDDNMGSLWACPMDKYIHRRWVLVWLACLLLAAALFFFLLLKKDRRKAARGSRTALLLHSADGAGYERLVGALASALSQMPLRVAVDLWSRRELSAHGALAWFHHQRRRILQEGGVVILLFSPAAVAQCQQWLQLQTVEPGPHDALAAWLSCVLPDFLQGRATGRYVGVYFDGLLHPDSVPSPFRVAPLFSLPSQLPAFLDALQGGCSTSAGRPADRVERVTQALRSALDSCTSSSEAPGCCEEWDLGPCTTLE
From the text: Unless defined otherwise herein, all technical and scientific terms used in this disclosure have the same meaning as commonly understood by one of ordinary skill in the art to which this disclosure pertains. Where the term “ADIR” is used herein it means ACT1-Dependent IL-17 Receptor Modulator Screening System. The preface “m” means mouse and the prefix “h” means human.
Mouse constructs were produced as depicted in the panels of FIG. 1. Human sequence constructs were produced as in the panels of FIG. 9, where mouse cDNA constructs were replaced by human cDNA constructed. In the mouse ADIR system exogenous IL-17RC was not provided because the cell line (mouse embryonic fibroblasts) have endogenous IL-17RC expression. In the hADIR system, human components used for the hADIR system (hRA, hRC, hRB, hAct1) were expressed from added polynucleotides.
The data reflected in the Figures utilized a reporter system specifically designed for Act1-dependent IL-17 signaling pathways. The reporter system is based at least in part on the principle that the engagement of active cognate ligands, and the interaction between Act1 and IL-17 receptors is required for active signaling of IL-17A/F, IL-17E, and IL-17C. The protein-protein-interaction (PPI) based reporter system is highly specific and easily scalable. The disclosure is illustrated using mouse and human systems. For the data presented in the Figures, the system comprised a three-part reporter system specifically designed for detecting IL-17A/F, IL-17E, and IL-17C signaling. The PPI-based reporter system provides for detecting active signaling, and is specific for each of the IL-17 family cytokines. The system that is responsive to binding of IL-17A and IL-17F comprises (1) an Act1-tobacco etch virus (TEV) protease fusion protein, which upon active IL-17A/F binding to the IL-17RA/RC receptor heterodimer on a target cell, will be recruited to (2) IL-17RC fused with a TEV cleavage site(TSC)-tTA (a transcriptional transactivator that binds to tetracycline responsive element, or TRE), releasing tTA, which will subsequently translocate into the nucleus where a (3) TRE-dmCherry-PEST (destabilized mCherry) element is integrated into the genome. tTA binds to the TRE to drive dmCherry expression in the target modified cell. The three described components, Act1-TEV, IL-17RC-TSC-tTA, and TRE-dmCherry-PEST, along with IL-17RA, can be delivered by retro or lenti-viral vectors or guide-RNA directed nucleases, or recombinase systems, or by homologous recombination, into mouse embryonic fibroblasts (MEF) or other mammalian cell lines, establishing stable reporter cell lines. Using the same principle, IL-17RC-TSC-tTA can be replaced with IL-17RB-TSC-tTA in the described system to provide for IL-17E (IL-25) binding, and with IL-17RE-TSC-tTA for detecting IL-17C binding. A parallel approach involves attaching the fusion protein of —TSC-tTA to the RA component and three independent system cell lines generated by supplementing RC/RB/RE, Act1-TEV, and TRE-dmCherry reporter components. Each of the retroviral vectors can contain a unique selection or fluorescent marker to enable efficient generation and maintenance of stable cell lines (for example, Puromycin resistance for m/hIL-17RC(RB, RE)-TSC-tTA; EBFP for m/hAct1-TEV; Neomycin resistance and mVenus fluorescence for TRE-dmCherry-PEST, and Thy1.1 for m/hRA).

IL-6 = experiment: IL-17A titration for activation of endogenous target gene IL-6 in MEF cells; assay type: cell-based, mouse; settings: IL-17A titration (FIG. 3B)
From the text: FIGS. 3A and 3B provide construct schematics (designed for mouse genes), and cartoon depictions of the proteins encoded by the constructs, and a graph illustrating IL-17A titrations for activation of an endogenous target gene (IL-6) in MEF cells. […] FIG. 3A: schematics of functional units of the retroviral transfer plasmid constructs used to build the mouse ADIR system.

B1: IL-17A: mouse IL-17 family cytokine, cognate ligand of IL-17RA/RC, used as agonist in the mADIR-17 system (protein, UniProt Q62386 26-158, looked up)
Interleukin-17A: AAIIPQSSACPNTEAKDFLQNVKVNLKVFNSLGAKVSSRRPSDYLNRSTSPWTLHRNEDPDRYPSVIWEAQCRHQRCVNAEGKLDHHMNSVLIQQEILVLKREPESCPFTFRVEKMLVGVGCTCVASIVRQAA
dmCherry signal produced (IL-17RA/RC; 0.4 ng/ml, after 24 hrs (FIG. 7)): 5.75% | dmCherry signal produced (IL-17RA/RC; 2 ng/ml, after 24 hrs (FIG. 7)): 24.6% | dmCherry signal produced (IL-17RA/RC; 10 ng/ml, after 24 hrs (FIG. 7)): 43.6% | cells turning on dmCherry signal (IL-17RA/RC; 50 ng/ml, 24 hr after plating (FIG. 5B)): 27.2% | dmCherry signal produced (IL-17RA/RC; 50 ng/ml, after 24 hrs (FIG. 7)): 55.1% | dmCherry signal produced (IL-17RA/RC; 100 ng/ml, after 24 hrs (FIG. 6I)): 25% | dmCherry signal produced (IL-17RA/RC; 100/2 ng/ml, after 24 hrs (FIG. 6H)): 24.5% | dmCherry signal produced (IL-17RA/RC; 100/(2^2) ng/ml, after 24 hrs (FIG. 6G)): 21.9% | dmCherry signal produced (IL-17RA/RC; 100/(2^3) ng/ml, after 24 hrs (FIG. 6F)): 19.9% | dmCherry produced (IL-17RA/RC; 100/(2^4) ng/ml, after 24 hrs (FIG. 6E)): 17.6% | dmCherry signal produced (IL-17RA/RC; 100/(2^5) ng/ml, after 24 hrs (FIG. 6D)): 12.6% | dmCherry signal produced (IL-17RA/RC; 100/(2^6) ng/ml, after 24 hrs (FIG. 6C)): 8.69% | dmCherry signal produced (IL-17RA/RC; 100/(2′7) ng/ml, after 24 hrs (FIG. 6B)): 5.36% | EC50 (sensitivity, dose-dependent dmCherry response) (IL-17RA/RC; mIL-17A/F system, three parameter [Agonist] vs. response fit (FIG. 6J)): 3.556 ng/mL | activation of endogenous target gene (IL-6) (IL-6): upregulation of IL-6
